Source: paper PMC5514624

How the values were obtained:
SRCRP2-11 = biological target: T1, SRCRP2-11 (Homo sapiens, UniProt Q9UGM3); assay: EMSA
T1 chain: GRVEVLYRGSW

SRCRP2-11-R = biological target: T2, SRCRP2-11-R (Homo sapiens, UniProt Q9UGM3, E4R); assay: EMSA
T2 chain: GRVRVLYRGSW

B1: tdTomato1 siRNA (dsRNA)
RNA 1: UUGGUGUCCACGUAGUAGUAG
RNA 2: CUACUACUACGUGGACACCAA
binding result (SRCRP2-11): binds
binding result (SRCRP2-11-R): binds
